# Patent US8748182B2, “Mutant proteins and methods for producing them” (Heptares Therapeutics Limited, priority 2007, dated 2014)
# Substitutions are numbered along the chain they refer to. Names may count otherwise.
# B1: A86L: NTR point mutant (protein, UniProt P20789 1-424, looked up, variant A86L)
# Neurotensin receptor type 1: MHLNSSVPQGTPGEPDAQPFSGPQSEMEATFLALSLSNGSGNTSESDTAGPNSDLDVNTDIYSKVLVTAIYLALFVVGTVGNSVTLFTLARKKSLQSLQSTVHYHLGSLALSDLLILLLAMPVELYNFIWVHHPWAFGDAGCRGYYFLRDACTYATALNVASLSVERYLAICHPFKAKTLMSRSRTKKFISAIWLASALLAIPMLFTMGLQNRSGDGTHPGGLVCTPIVDTATVKVVIQVNTFMSFLFPMLVISILNTVIANKLTVMVHQAAEQGRVCTVGTHNGLEHSTFNMTIEPGRVQALRHGVLVLRAVVIAFVVCWLPYHVRRLMFCYISDEQWTTFLFDFYHYFYMLTNALFYVSSAINPILYNLVSANFRQVFLSTLACLCPGWRHRRKKRPTFSRKPNSMSSNHAFSTSATRETLY
# B2: V360A: NTR point mutant (protein, UniProt P20789 1-424, looked up, variant V360A)
# Neurotensin receptor type 1: B1 Neurotensin receptor type 1 with L86A, V360A
# B3: L310A: NTR point mutant (protein, UniProt P20789 1-424, looked up, variant L310A)
# Neurotensin receptor type 1: B1 Neurotensin receptor type 1 with L86A, L310A
# B4: K397A: NTR point mutant (protein, UniProt P20789 1-424, looked up, variant K397A)
# Neurotensin receptor type 1: B1 Neurotensin receptor type 1 with L86A, K397A
# B5: 1260A: NTR point mutant (Ile 260) (protein, UniProt P20789 1-424, looked up, variant I260A)
# Neurotensin receptor type 1: B1 Neurotensin receptor type 1 with L86A, I260A
# B6: S373A: NTR point mutant (protein, UniProt P20789 1-424, looked up, variant S373A)
# Neurotensin receptor type 1: B1 Neurotensin receptor type 1 with L86A, S373A
# B7: N370A: NTR point mutant (protein, UniProt P20789 1-424, looked up, variant N370A)
# Neurotensin receptor type 1: B1 Neurotensin receptor type 1 with L86A, N370A
# B8: F380A: NTR point mutant (protein, UniProt P20789 1-424, looked up, variant F380A)
# Neurotensin receptor type 1: B1 Neurotensin receptor type 1 with L86A, F380A
# B9: A73L: NTR point mutant (protein, UniProt P20789 1-424, looked up, variant A73L)
# Neurotensin receptor type 1: B1 Neurotensin receptor type 1 with A73L, L86A
# B10: T294A: NTR point mutant (protein, UniProt P20789 1-424, looked up, variant T294A)
# Neurotensin receptor type 1: B1 Neurotensin receptor type 1 with L86A, T294A
# B11: V313A: NTR point mutant (protein, UniProt P20789 1-424, looked up, variant V313A)
# Neurotensin receptor type 1: B1 Neurotensin receptor type 1 with L86A, V313A
# B12: L308A: NTR point mutant (protein, UniProt P20789 1-424, looked up, variant L308A)
# Neurotensin receptor type 1: B1 Neurotensin receptor type 1 with L86A, L308A
# B13: F342A: NTR point mutant (protein, UniProt P20789 1-424, looked up, variant F342A)
# Neurotensin receptor type 1: B1 Neurotensin receptor type 1 with L86A, F342A
# B14: V309A: NTR point mutant (protein, UniProt P20789 1-424, looked up, variant V309A)
# Neurotensin receptor type 1: B1 Neurotensin receptor type 1 with L86A, V309A
# B15: P389A: NTR point mutant (protein, UniProt P20789 1-424, looked up, variant P389A)
# Neurotensin receptor type 1: B1 Neurotensin receptor type 1 with L86A, P389A
# B16: G215A: NTR point mutant (protein, UniProt P20789 1-424, looked up, variant G215A)
# Neurotensin receptor type 1: B1 Neurotensin receptor type 1 with L86A, G215A
# B17: A385L: NTR point mutant (protein, UniProt P20789 1-424, looked up, variant A385L)
# Neurotensin receptor type 1: B1 Neurotensin receptor type 1 with L86A, A385L
# B18: Y349A: NTR point mutant (protein, UniProt P20789 1-424, looked up, variant Y349A)
# Neurotensin receptor type 1: B1 Neurotensin receptor type 1 with L86A, Y349A
# B19: A69L: NTR point mutant (protein, UniProt P20789 1-424, looked up, variant A69L)
# Neurotensin receptor type 1: B1 Neurotensin receptor type 1 with A69L, L86A
# B20: 1253A: NTR point mutant (Ile 253) (protein, UniProt P20789 1-424, looked up, variant I253A)
# Neurotensin receptor type 1: B1 Neurotensin receptor type 1 with L86A, I253A
# B21: G390A: NTR point mutant (protein, UniProt P20789 1-424, looked up, variant G390A)
# Neurotensin receptor type 1: B1 Neurotensin receptor type 1 with L86A, G390A
# B22: R183A: NTR point mutant (protein, UniProt P20789 1-424, looked up, variant R183A)
# Neurotensin receptor type 1: B1 Neurotensin receptor type 1 with L86A, R183A
# B23: E166A: NTR point mutant (protein, UniProt P20789 1-424, looked up, variant E166A)
# Neurotensin receptor type 1: B1 Neurotensin receptor type 1 with L86A, E166A
# B24: A177L: NTR point mutant (protein, UniProt P20789 1-424, looked up, variant A177L)
# Neurotensin receptor type 1: B1 Neurotensin receptor type 1 with L86A, A177L
# B25: M250A: NTR point mutant (protein, UniProt P20789 1-424, looked up, variant M250A)
# Neurotensin receptor type 1: B1 Neurotensin receptor type 1 with L86A, M250A
# B26: G306A: NTR point mutant (protein, UniProt P20789 1-424, looked up, variant G306A)
# Neurotensin receptor type 1: B1 Neurotensin receptor type 1 with L86A, G306A
# B27: V165A: NTR point mutant (protein, UniProt P20789 1-424, looked up, variant V165A)
# Neurotensin receptor type 1: B1 Neurotensin receptor type 1 with L86A, V165A
# B28: C386A: NTR point mutant (protein, UniProt P20789 1-424, looked up, variant C386A)
# Neurotensin receptor type 1: B1 Neurotensin receptor type 1 with L86A, C386A
# B29: R395A: NTR point mutant (protein, UniProt P20789 1-424, looked up, variant R395A)
# Neurotensin receptor type 1: B1 Neurotensin receptor type 1 with L86A, R395A
# B30: H393A: NTR point mutant (protein, UniProt P20789 1-424, looked up, variant H393A)
# Neurotensin receptor type 1: B1 Neurotensin receptor type 1 with L86A, H393A
# B31: Nag7m: NTR with F358A+A86L+I260A+F342A (protein)
# chain: TSESDTAGPNSDLDVNTDIYSKVLVTAIYLALFVVGTVGNSVTLFTLARKKSLQSLQSTVHYHLGSLALSDLLILLLAMPVELYNFIWVHHPWAFGDAGCRGYYFLRDACTYATALNVASLSVERYLAICHPFKAKTLMSRSRTKKFISAIWLASALLAIPMLFTMGLQNRSGDGTHPGGLVCTPIVDTATVKVVIQVNTFMSFLFPMLVISILNTVAANKLTVMVHQAAEQGRVCTVGTHNGLEHSTFNMTIEPGRVQALRHGVLVLRAVVIAFVVCWLPYHVRRLMFCYISDEQWTTALFDFYHYFYMLTNALAYVSSAINPILYNLVSANFRQVFLSTLACLCPGWRHRRKKRPTFSRKPNSMSSNHAFSTSATRETLY
# B32: Wildtype NTR: wild-type rat neurotensin receptor (protein)
# chain: B31 chain with L44A, A218I, A300F, A316F
# B33: Nag7n: NTR with F358A+H103A+I260A+F342A (protein)
# chain: B31 chain with L44A, H61A
# Assay: Thermostability of neurotensin receptor (NTR) mutants (3H-neurotensin binding)
# Assay type: physicochemical
# Details: for thermostability, heated in the presence of 3H-neurotensin: Ligand(+) format; for thermostability, 3H-neurotensin (agonist) binding after the heating step: heated in the absence of the agonist
# Procedure: FIG. 12 Flow chart showing the two different assay formats of ligand (+) and ligand (−) used to determine receptor thermostablity.
# 3. Mutants tested for thermostability by heating in the absence of the agonist were re-tested using a slightly different assay where the mutants were heated in the presence of ^3H-neurotensin (Ligand(+) format in FIG. 12). […] All of these also have increased thermostability. • 5. Preferred combinations are • a. Nag7m F358A+A86L+1260A+F342A Tm 51° C. (neurotensin bound) • b. Nag7n F358A+H103A+1260A+F342A Tm 51° C. (neurotensin bound) • Wildtype NTR has a Tm of 35° C. with neurotensin bound.
Molecule,"thermostability, heated in the presence of 3H-neurotensin","thermostability, 3H-neurotensin (agonist) binding after the heating step",Tm (neurotensin bound)
B1,improved thermostability,small but significant increase in thermostability,–
B2,improved thermostability,–,–
B3,improved thermostability,–,–
B4,–,small but significant increase in thermostability,–
B5,improved thermostability,–,–
B6,improved thermostability,–,–
B7,improved thermostability,–,–
B8,improved thermostability,–,–
B9,improved thermostability,–,–
B10,improved thermostability,–,–
B11,improved thermostability,–,–
B12,improved thermostability,–,–
B13,improved thermostability,–,–
B14,improved thermostability,–,–
B15,improved thermostability,–,–
B16,improved thermostability,–,–
B17,improved thermostability,small but significant increase in thermostability,–

Molecule,"thermostability, heated in the presence of 3H-neurotensin","thermostability, 3H-neurotensin (agonist) binding after the heating step",Tm (neurotensin bound)
B18,–,small but significant increase in thermostability,–
B19,improved thermostability,–,–
B20,improved thermostability,–,–
B21,improved thermostability,–,–
B22,improved thermostability,–,–
B23,improved thermostability,–,–
B24,improved thermostability,–,–
B25,improved thermostability,–,–
B26,improved thermostability,–,–
B27,improved thermostability,–,–
B28,–,small but significant increase in thermostability,–
B29,improved thermostability,–,–
B30,–,small but significant increase in thermostability,–
B31,–,–,51 °C
B32,–,–,35 °C
B33,–,–,51 °C
